System: MS2 coat protein
Assay: apparent KD of MS2 coat protein; designed switch direction (-1 OFF switch, 1 ON switch): -1; higher = weaker reporter binding
Summary of the method: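 Normalised cluster fluorescence was curve-fitted, and each design's median over clusters is its apparent KD. Before this, SNAP-549-labelled MS2 coat protein was titrated from 0.7 or 1.5 nM, doubling to 3 µM, over RNA switches transcribed on Illumina chips by stalled E. coli RNA polymerase. Titrations had no input, 200 uM small-molecule ligand, or an oligonucleotide input, and steps lasted 0.8–1.5 h (lowest) to 10–20 min (highest).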

[1] = Eterna round: R95, input ligand: microRNA oligo, concentration not stated
[2] = input ligand: microRNA oligo, concentration not stated
[3] = Eterna round: R95, input ligand: FMN 200 uM
[4] = Eterna round: R95, input ligand: none

Row | Sequence | apparent KD of MS2 coat protein (input ligand: FMN 200 uM) [nM] | apparent KD of MS2 coat protein (input ligand: none) [nM] | apparent KD of MS2 coat protein [1] [nM] | also measured
1 | UUUAUACAUGAGGAUCACCCAUGUGAGGAUAUGCUUUAUUAUUAUUAUUAUUAUUAUUGCAGAAGGUACAUUAU [LRO-Excl01-14] (Eterna round: R97, puzzle: Exclusion 1) | 35.7 | 37.7 | – | –
2 | UUUUAACAUGAGGAUCACCCAUGUGAGGAUAUCGAAAUUUAUAUUUAUAUUUAUAUUUCGAGAAGGCACAUUUU [JMF 97] (puzzle: Exclusion 1) | – | – | 131 | –
3 | GCAUAUGAUGUAGGAUAUGCGAGACAUGAGGAUCACCCAUGUGAGGGAAGGAGAAGGAGAAGAGAGUAGAAGGAUAGAGUGUGA [Default title] (Eterna round: R96, puzzle: Exclusion NG 2) | 83.8 | 85.1 | – | apparent KD of MS2 coat protein [2]: 85.3 nM
4 | UUUAUAUAGUAAGGAUAUGUAUUAAUUUUAUCAACAGAAGGUACUGACAUGAGGAUCACCCAUGUUUUAGUGUGGGCAUGUAGU [JMF's solution 93] (Eterna round: R96, puzzle: Exclusion NG 1) | 543 | 536 | – | apparent KD of MS2 coat protein [2]: 493 nM
5 | UCAUGUCCAGAGGAUAUGUAGCGGAUAAACGCAACAGAAGGCUGGACAUGAGGAUCACCCAUGUGUGCCUUCUA [Exclusion 6 Mod3 of JL of Mod of Letion by ViennaUCT] (Eterna round: R97, puzzle: Exclusion 6) | 81.3 | 227 | – | –
6 | CUGCUCCGUGUAGGAUAUGCGCGCAACCAACGCGCAGAAGGACAUGAGGAUCACCCAUGUAUGUUAUUAUCACGUGAGGCGCAA [Design 32] (Eterna round: R96, puzzle: Exclusion NG 1) | 25.7 | 18.5 | – | apparent KD of MS2 coat protein [2]: 13.8 nM
7 | AAAACUCACGUAGGAUAUCAUUCCUUAAGGUAGUGAGAAGGACGUGACUACAUGUCCUAAAACAUGAGGAUCACCCAUGUAGGC [Riis] (Eterna round: R96, puzzle: Exclusion NG 1) | – | – | – | apparent KD of MS2 coat protein [2]: 24.2 nM
8 | AAAGCGUGAGGAUAUGAGGCGCCGGGCCGGUUGGUGCGGAUUCAGAAGGCACAUGAGGAUCACCCAUGUAGGAA [Excls4-III] (puzzle: Exclusion 4) | – | – | 22.9 | –
9 | AGAGUGCUGCGAGGAUAUACAUGAGGAUCACCCAUGUAAAAGUGUGAGGCAAAGCCUCACACUAUGUAGAAGGCGCAGUACUCA [Mat - Exclusion NG 2 - Mod of JL - D11] (Eterna round: R96, puzzle: Exclusion NG 2) | 20.2 | 19.3 | – | apparent KD of MS2 coat protein [2]: 12.6 nM
10 | GCAGCAUAGUUUACUAACUGUUACAUGAGGAUCACCCAUGUCUAGGAUAUGGUCUGGAUUACAGGCCAGAAGGAGACAAGCUGC [Eli exng3 - 034] (Eterna round: R96, puzzle: Exclusion NG 3) | 14.1 | 16.6 | – | apparent KD of MS2 coat protein [2]: 12.1 nM
11 | GGCUUACAUGAGGAUCACCCAUGUCAGGAUAUAGAACGAUGGCGGAACGCCAUCGCCGCUAGAAGGGACCGGUG [Eternabot (Original) Solution 25] (Eterna round: R97, puzzle: Exclusion 1) | 142 | 78 | – | –
12 | AGAUGGCGAGGAUAUACAUGAGGAUCACCCAUGUGAAGAAGAAUAGUGAGGAAGAAAAGUAGAAGGCGCUGUCA [Mat - Exclusion 3 - Mod of Salish D32] (puzzle: Exclusion 3) | – | – | 49.4 | –
13 | AAAUACAAAGGAUAUACAUGAGGAUCACCCAUGUAGGUCAAUGCGCGGGCGAUGCCACGUAGAAGGUUGAAUAC [EX3 C.12] (Eterna round: R97, puzzle: Exclusion 3) | 27.5 | 24.1 | – | –
14 | AAUGAGCGAGGAUAUGCAACUGUAUGACCUACGUGUGCCAGACAUGAGGAUCACCCAUGUAGAAGGUGCUUUCC [Israte] (puzzle: Exclusion 2) | – | – | 45.4 | –
15 | AAAAAGCGAGGAUAUGCGGGCGGGUGCGGCCAGCCGAUGUGACAUGAGGAUCACCCAUGUAGAAGGCGCAAAAA [Excls2-VII] (puzzle: Exclusion 2) | – | – | 12.3 | –
16 | UAAAAGAAAGUAAGGAUAUCUAAAUUGGAAAAGAGAGAGAAGGUACAUGAGGAUCACCCAUGUAGGGUAUCCUG [Ritien] (Eterna round: R97, puzzle: Brourd's mod of Exclusion 4) | 41.8 | 42.2 | – | –
17 | AAGUAGACAGUGAGGAUAUAGGUGGAAUGACCCAUUUAGAAGGUACAUGAGGAUCACCCAUGUGGGUAAUGUCG [Brourd's EX4 #27] (Eterna round: R97, puzzle: Brourd's mod of Exclusion 4) | 146 | 149 | – | –
18 | GAAUAACAAGUGAGGAUAUGGAGUUGGGAGCCAGUUCAGAAGGCACAUGAGGAUCACCCAUGUGAACCGCAGCU [Eternabot (L2) Solution 45] (Eterna round: R97, puzzle: Brourd's mod of Exclusion 4) | 16.9 | 14.5 | – | –

Row | Sequence | apparent KD of MS2 coat protein (input ligand: FMN 200 uM) [nM] | apparent KD of MS2 coat protein (input ligand: none) [nM] | apparent KD of MS2 coat protein [1] [nM] | also measured
19 | AAAACCUCUGUCAGGAUAUCCAUGCGUCCAAAAGCGGAGAAGGGACAUGAGGAUCACCCAUGUUAGCAAAAUCA [Ceenxequ] (puzzle: Brourd's mod of Exclusion 4) | – | – | 34.9 | apparent KD of MS2 coat protein [3]: 119 nM; apparent KD of MS2 coat protein [4]: 38.5 nM
20 | UUUUUGUGAGGAUAUCAGUAGUAAAUAAAUAAAAUUACUACUGAGAAGGCACAUGAGGAUCACCCAUGUUUUUU [Mat - Exclusion 4 - Mod of Salish - D68] (puzzle: Exclusion 4) | – | – | 41.8 | –
21 | GCUGGUCGAGGAUAUACAUUCGUGCUUCGGCACGUAAGAUCACAUGAGGAUCACCCAUGUAGAAGGCGACCAGC [E2/5-A1] (Eterna round: R97, puzzle: Exclusion 2) | 930 | 112 | – | –
22 | CCAGGCGUCUUUGCUCGUCUUAUUUGGAGAUGACUGUUAACAUGAGGAUCACCCAUGUGUGUGGGAGCGUUGCAGUC [JR_SV3TOV2_Sub021] (puzzle: Sensor v3, turn-off variant 2) | – | – | 431 | apparent KD of MS2 coat protein [3]: 580 nM; apparent KD of MS2 coat protein [4]: 885 nM
23 | ACAAAGGGAGUCAGGAUAUCGGACGUAAGUCAAGACGAGAAGGGACAUGAGGAUCACCCAUGUCAGCGGUGAAA [Exclusion 4 S1] (puzzle: Brourd's mod of Exclusion 4) | – | – | 18.7 | apparent KD of MS2 coat protein [3]: 42.5 nM; apparent KD of MS2 coat protein [4]: 17 nM
24 | UUCAUGUUAGGAUAUUCCGCUGCAGAGAAAGAGUGCAGAAUGAAGAAGGGACAUGAGGAUCACCCAUGUUCCAA [EX4 A.8] (Eterna round: R97, puzzle: Exclusion 4) | 19.5 | 15.5 | – | –
25 | UUUUAACAUGAGGAUCACCCAUGUGAGGAUAUCGAUAUUUUUAUUAAUAUUAAUAAAACGAGAAGGCACAUUUU [JMF 15] (puzzle: Exclusion 1) | – | – | 65.4 | –
26 | GGCAUGUGAGGAUAUGUACCUGAGUGCUUUGCGCUCAGGAAACAGAAGGCACAUGAGGAUCACCCAUGUGAAAU [jl-ex4-4.48 ViennaUCT mod] (Eterna round: R97, puzzle: Exclusion 4) | 96.8 | 251 | – | –
27 | AGAUCACAUGAGGAUCACCCAUGUGAGGAUAUGAUACUAUGUACUUCGGUACAUAGUAUCAGAAGGCAUAUGAA [Ex1-3: 73] (puzzle: Exclusion 1) | – | – | 28.9 | –
28 | UAUGUAUACGUCAGGAUAUACGGUCCAGAUGGUAAGUAGAAGGGACAUGAGGAUCACCCAUGUAUAAUAAUAAU [AK 1] (puzzle: Brourd's mod of Exclusion 4) | – | – | 18 | apparent KD of MS2 coat protein [3]: 20.2 nM; apparent KD of MS2 coat protein [4]: 22.5 nM
29 | UCACGGGACUAAGGAUAUAUGAGUACCAUUUACAUAGAAGGUAGAAUGUUAGAUCAUAAACUAAACAUGAGGAUCACCCAUGUU [JR_ExcNG1_Sub092] (Eterna round: R96, puzzle: Exclusion NG 1) | – | – | – | apparent KD of MS2 coat protein [2]: 15.3 nM
30 | AGUGCAUGAGGAUAUGCAAAUCGAAAGACGCAAGGGCAAUCACAUGAGGAUCACCCAUGUAGAAGGCGUCGCAC [Eternabot (Original) Solution 17] (Eterna round: R97, puzzle: Exclusion 2) | 30.7 | 31.9 | – | –
31 | AGGCGUGCUGAGGAUAUACUACCGGUUGCGAUAGUAGAAGGUAGCACAUGAGGAUCACCCAUGUGGUCAGAUGC [Bequte] (puzzle: Exclusion 6) | – | – | 19.1 | –
32 | CUGAGGUAGCGGUCCUAUGACAUGAGGAUCACCCAUGUACCUUGCUAUAAGCUUUUUGCUCGUCUUAUGAUUCUCGG [JL Atriat mod 7] (puzzle: Sensor v3, turn-off variant 1) | – | – | 713 | apparent KD of MS2 coat protein [3]: 246 nM; apparent KD of MS2 coat protein [4]: 302 nM
33 | GGCACACAUGAGGAUCACCCAUGUGAGGAUAUGCUGCGAUCGUCGUAAGACGAUAGCAGUAGAAGGCACAUGCC [Mat - Exclusion 1 - Eli Mod - D8] (Eterna round: R97, puzzle: Exclusion 1) | 22.9 | 20.5 | – | –
34 | AUUUUGUGAGGAUAUUAGUUGUAGAAAGUUGUUAGUAUUGCUGAGAAGGCACAUGAGGAUCACCCAUGUACAAC [JR_Ex4_Sub038] (Eterna round: R97, puzzle: Exclusion 4) | 20.6 | 19.1 | – | –
35 | AGAAAUGCCCAUGACCGCAAGCUUUUUGCUUGUCUUACCACAUGAGGAUCACCCAUGUGACAUGGGCUCCUGAUAAU [Onlaleti] (puzzle: Sensor v3, turn-off variant 2) | – | – | 11.4 | apparent KD of MS2 coat protein [3]: 14.7 nM; apparent KD of MS2 coat protein [4]: 12.3 nM
36 | CACCAUCGUGUAAGGAUAUCGAGGCUUAGCGGGUGUGAGAAGGUACAUGAGGAUCACCCAUGUUACGAUUUGCG [Eternabot (L1) Solution 77] (Eterna round: R97, puzzle: Brourd's mod of Exclusion 4) | 28.8 | 25.6 | – | –
